Columns and labels:
ERα = molecular target: T1, ERα (Homo sapiens, UniProt P03372); test: Phage ELISA / fingerprint on ER immobilized on biotinylated ERE (Examples 2.3-2.5); type: binding; parameters: purchased PanVera Corporation, Madison, WI; key to binding activity, ERα and buffer / binding activity, ERα and estradiol / binding activity, ERα and tamoxifen / binding of peptide, Class Specific Fingerprint on ERα: semiquantitative scale of 0 to 7+; 1+: semiquantitative scale of 0 to 7+; 2+: semiquantitative scale of 0 to 7+; 3+: semiquantitative scale of 0 to 7+; 4+: semiquantitative scale of 0 to 7+; 5+: semiquantitative scale of 0 to 7+; 6+: semiquantitative scale of 0 to 7+; semiquantitative scale of 0 to 7+; settings: for binding activity, ERα and estradiol: ERα and estradiol (1 µM); for binding activity, ERα and tamoxifen: ERα and tamoxifen (4-OH tamoxifen, 1 µM)
T1 sequence (P03372 1-595): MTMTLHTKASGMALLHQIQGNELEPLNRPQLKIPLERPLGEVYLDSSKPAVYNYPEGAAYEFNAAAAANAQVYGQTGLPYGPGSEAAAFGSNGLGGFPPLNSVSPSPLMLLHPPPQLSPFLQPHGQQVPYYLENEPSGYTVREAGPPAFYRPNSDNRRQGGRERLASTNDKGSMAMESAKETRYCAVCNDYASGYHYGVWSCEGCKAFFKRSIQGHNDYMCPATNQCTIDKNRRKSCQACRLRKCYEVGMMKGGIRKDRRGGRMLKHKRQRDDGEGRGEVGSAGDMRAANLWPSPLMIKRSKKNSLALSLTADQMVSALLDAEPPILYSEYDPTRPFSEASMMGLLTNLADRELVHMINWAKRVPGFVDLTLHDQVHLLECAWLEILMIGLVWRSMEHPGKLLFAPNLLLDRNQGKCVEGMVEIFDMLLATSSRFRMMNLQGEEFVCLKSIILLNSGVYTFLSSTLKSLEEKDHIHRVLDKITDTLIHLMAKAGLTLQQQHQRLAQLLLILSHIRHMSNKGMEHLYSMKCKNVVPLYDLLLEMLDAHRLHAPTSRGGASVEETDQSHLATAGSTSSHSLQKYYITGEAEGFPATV

ERβ = ERβ (Homo sapiens, UniProt Q92731); test: as above; type: binding; parameters: purchased PanVera Corporation, Madison, WI; key: semiquantitative scale of 0 to 7+; 1+: semiquantitative scale of 0 to 7+; 2+: semiquantitative scale of 0 to 7+; 3+: semiquantitative scale of 0 to 7+; 4+: semiquantitative scale of 0 to 7+; 5+: semiquantitative scale of 0 to 7+; 6+: semiquantitative scale of 0 to 7+; semiquantitative scale of 0 to 7+; settings: for binding activity, ERβ and Estradiol: ERβ and Estradiol (1 µM); for binding activity, ERβ and tamoxifen: ERβ and tamoxifen (4-OH tamoxifen, 1 µM)
ERβ, sequence (Q92731 whole entry): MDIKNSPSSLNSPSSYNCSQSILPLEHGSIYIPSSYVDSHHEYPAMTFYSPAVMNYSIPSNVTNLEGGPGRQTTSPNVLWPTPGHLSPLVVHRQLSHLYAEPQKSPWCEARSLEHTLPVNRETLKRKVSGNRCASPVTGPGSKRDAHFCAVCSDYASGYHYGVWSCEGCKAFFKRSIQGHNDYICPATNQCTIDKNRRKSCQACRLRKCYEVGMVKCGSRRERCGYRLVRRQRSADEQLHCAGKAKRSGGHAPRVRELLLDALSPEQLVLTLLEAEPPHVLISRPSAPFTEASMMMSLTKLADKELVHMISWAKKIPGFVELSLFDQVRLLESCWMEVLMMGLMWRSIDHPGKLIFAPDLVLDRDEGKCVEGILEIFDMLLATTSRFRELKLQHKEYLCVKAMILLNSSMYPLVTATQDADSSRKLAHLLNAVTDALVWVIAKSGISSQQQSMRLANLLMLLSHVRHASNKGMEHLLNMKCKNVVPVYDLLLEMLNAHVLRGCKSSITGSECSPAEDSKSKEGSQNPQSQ

[1] = 4-OH Tamoxifen present during binding
[2] = 16a-OH Estrone present during binding
[3] = Clomiphene present during binding
[4] = Estradiol present during binding
[5] = ICI 182,780 present during binding
[6] = Nafoxidine present during binding
[7] = Premarin present during binding
[8] = Progesterone present during binding
[9] = Raloxifene present during binding

SSTTMFDFFYERLSR [Peptide 6t-β]
binding activity, ERα and buffer (ERα): 4+
binding activity, ERα and estradiol (ERα): 4+
binding activity, ERα and tamoxifen (ERα): 6+
binding activity, ERβ and Estradiol (ERβ): 4+
binding activity, ERβ and buffer (ERβ): 7+
binding activity, ERβ and tamoxifen (ERβ): 7+

SSTTWRCPEWYCGSR [Peptide 30E-β]
binding activity, ERα and buffer (ERα): 4+
binding activity, ERα and estradiol (ERα): 3+
binding activity, ERα and tamoxifen (ERα): 3+
binding activity, ERβ and Estradiol (ERβ): 7+
binding activity, ERβ and buffer (ERβ): 6+
binding activity, ERβ and tamoxifen (ERβ): 3+

SSVASREWWVRELSR [Peptide 15t-β]
binding activity, ERα and buffer (ERα): 3+
binding activity, ERα and estradiol (ERα): 2+
binding activity, ERα and tamoxifen (ERα): 5+
binding activity, ERβ and Estradiol (ERβ): 2+
binding activity, ERβ and buffer (ERβ): 6+
binding activity, ERβ and tamoxifen (ERβ): 7+

SSVFTIMDGKVALSR [Peptide 1t-β]
binding activity, ERα and buffer (ERα): 3+
binding activity, ERα and estradiol (ERα): 3+
binding activity, ERα and tamoxifen (ERα): 7+
binding activity, ERβ and Estradiol (ERβ): 2+
binding activity, ERβ and buffer (ERβ): 3+
binding activity, ERβ and tamoxifen (ERβ): 7+

SSWDFRVPWWYNNSR [Peptide 31E-β]
binding activity, ERα and buffer (ERα): 3+
binding activity, ERα and estradiol (ERα): 2+
binding activity, ERα and tamoxifen (ERα): 3+
binding activity, ERβ and Estradiol (ERβ): 7+
binding activity, ERβ and buffer (ERβ): 3+
binding activity, ERβ and tamoxifen (ERβ): 2+

SSWNSREFFLSQLSR [Peptide 5t-β]
binding activity, ERα and buffer (ERα): 3+
binding activity, ERα and estradiol (ERα): 2+
binding activity, ERα and tamoxifen (ERα): 5+
binding activity, ERβ and Estradiol (ERβ): 2+
binding activity, ERβ and buffer (ERβ): 2+
binding activity, ERβ and tamoxifen (ERβ): 7+

SSWPGAEWFKEQLSR [Peptide 20b-β]
binding activity, ERα and buffer (ERα): 4+
binding activity, ERα and estradiol (ERα): 3+
binding activity, ERα and tamoxifen (ERα): 4+
binding activity, ERβ and Estradiol (ERβ): 4+
binding activity, ERβ and buffer (ERβ): 7+
binding activity, ERβ and tamoxifen (ERβ): 5+

SSWPNPTFWERQLSR [Peptide 3b-β]
binding activity, ERα and buffer (ERα): 5+
binding activity, ERα and estradiol (ERα): 3+
binding activity, ERα and tamoxifen (ERα): 3+
binding activity, ERβ and Estradiol (ERβ): 2+
binding activity, ERβ and buffer (ERβ): 5+

SSYDWQCPSWYCPAPPSSR [Peptide 29E-β]
binding activity, ERα and buffer (ERα): 3+
binding activity, ERα and estradiol (ERα): 4+
binding activity, ERα and tamoxifen (ERα): 3+
binding activity, ERβ and Estradiol (ERβ): 7+
binding activity, ERβ and buffer (ERβ): 7+
binding activity, ERβ and tamoxifen (ERβ): 5+

SSYEIPKWALQWLSR [Peptide 34E-β]
binding activity, ERα and buffer (ERα): 5+
binding activity, ERα and estradiol (ERα): 3+
binding activity, ERα and tamoxifen (ERα): 4+
binding activity, ERβ and Estradiol (ERβ): 6+
binding activity, ERβ and buffer (ERβ): 4+
binding activity, ERβ and tamoxifen (ERβ): 2+

SWDMHQFFWEGVSR [Peptide 2PT]
binding of peptide, Class Specific Fingerprint on ERα (ERα; [1]): 7+
binding of peptide, Class Specific Fingerprint on ERα (ERα; [2]): 2+
binding of peptide, Class Specific Fingerprint on ERα (ERα; [3]): 6+
binding of peptide, Class Specific Fingerprint on ERα (ERα; DES present during binding): 1+
binding of peptide, Class Specific Fingerprint on ERα (ERα; [4]): 1+
binding of peptide, Class Specific Fingerprint on ERα (ERα; Estriol present during binding): 1+
binding of peptide, Class Specific Fingerprint on ERα (ERα; [5]): 1+
binding of peptide, Class Specific Fingerprint on ERα (ERα; [6]): 4+
binding of peptide, Class Specific Fingerprint on ERα (ERα; [7]): 2+
binding of peptide, Class Specific Fingerprint on ERα (ERα; [8]): 2+
binding of peptide, Class Specific Fingerprint on ERα (ERα; [9]): 4+
binding of peptide, Class Specific Fingerprint on ERα (ERα; buffer present during binding): 1+
binding of peptide, Class Specific Fingerprint on ERβ (ERβ; [1]): 7+
binding of peptide, Class Specific Fingerprint on ERβ (ERβ; [2]): 1+
binding of peptide, Class Specific Fingerprint on ERβ (ERβ; [3]): 5+
binding of peptide, Class Specific Fingerprint on ERβ (ERβ; DES present during binding): 1+
binding of peptide, Class Specific Fingerprint on ERβ (ERβ; [4]): 1+
binding of peptide, Class Specific Fingerprint on ERβ (ERβ; Estriol present during binding): 1+
binding of peptide, Class Specific Fingerprint on ERβ (ERβ; [5]): 1+
binding of peptide, Class Specific Fingerprint on ERβ (ERβ; [6]): 3+
binding of peptide, Class Specific Fingerprint on ERβ (ERβ; [7]): 1+
binding of peptide, Class Specific Fingerprint on ERβ (ERβ; [8]): 1+
binding of peptide, Class Specific Fingerprint on ERβ (ERβ; [9]): 6+
binding of peptide, Class Specific Fingerprint on ERβ (ERβ; buffer present during binding): 2+

SYSKEWFEERLNSR [Peptide 4b-β]
binding activity, ERα and buffer (ERα): 4+
binding activity, ERα and estradiol (ERα): 3+
binding activity, ERα and tamoxifen (ERα): 3+
binding activity, ERβ and Estradiol (ERβ): 3+
binding activity, ERβ and buffer (ERβ): 7+
binding activity, ERβ and tamoxifen (ERβ): 3+
